Substrate in data set [1]: Nc1ncnc2c1ncn2[C@H]1C[C@H](O)[C@@H](COP(=O)(O)OP(=O)(O)OP(=O)(O)O)O1
Nature of the data set: purified protein. The note with it: ssDNA-dependent (80-nt oligonucleotide, 12.16 μM nucleotides), 11.56 mM MgCl2, 20 mM Tris-HCl pH 7.5, 37 °C, Hill fit, n 1.0. Format: biochemical, Deinococcus murrayi.

Substrate in data set [2]: Nc1ncnc2c1ncn2[C@@H]1O[C@H](COP(=O)(O)OP(=O)(O)OP(=O)(O)O)[C@@H](O)[C@H]1O
Nature of the data set: purified protein. Format: biochemical, Deinococcus murrayi. The note with it: ssDNA-dependent (80-nt oligonucleotide, 12.16 μM nucleotides), 11.56 mM MgCl2, 20 mM Tris-HCl pH 7.5, 37 °C, Hill fit, n 1.1.

The Km is the substrate concentration at which the rate is half of its maximum. The term kcat denotes the maximal rate divided by the concentration of active sites. Broadly, the kcat/Km is the second-order rate constant that governs catalysis at low substrate concentration.

B1: DmuRecA (Deinococcus murrayi) (protein)
chain: MSKDNPKDFGTPSDSKERLKAIETAMTQIEKAFGKGSIMRLGAESKLDVQAVSTGSLSLDLALGVGGIPRGRITEIYGPESGGKTTLALSVIAQAQKAGGTCAFIDAEHALDPVYARSLGVNTDELLVSQPDNGEQRLEIMELLVRSGAIDVVVVDSVAALTPRAEIEGEMGDSLPGLQARLMSQALRKLTAILSKTGTAAIFINQVREKIGVMYGNPETTTGGRALKFYASVRLDVRKIGQPVKMGNDAVGNTVKVKTVKNKVAPPFKEVELTLMYGKGFDQLSDLVTLASDMDIIKKAGSFYSYGEDRLGQGKEKAIAYIAERPELEAEIRERVLSAIKEGRAGDVPGVASVPAVAE
notes: heterogeneous oligomers
In the case of B1, in “purified protein [1]”, the Km worked out at 280 ± 7 µM, the kcat stood at 0.14 ± 0.004 s⁻¹ and the kcat/Km was 500 ± 25 M⁻¹ s⁻¹. Moreover, in “purified protein [2]”, the Km turned out to be 310 ± 9 µM, the kcat was found to be 0.13 ± 0.004 s⁻¹ and the kcat/Km stood at 430 ± 18 M⁻¹ s⁻¹.

(Values after paper PMC3103430, “RecA Proteins from Deinococcus geothermalis and Deinococcus murrayi - Cloning, Purification and Biochemical Characterisation” (BMC Molecular Biology, 2011).)
